Measured values taken from patent publication US5650301A, “Hirudin HV2 having a SN7LYS substitution, method of making, and method of use” (Transgene S.A., priority 1986, dated 1997).

Assays:
[1] = biological target: T1, thrombin (Homo sapiens, UniProt P00734); test: Inhibitory effect of crude yeast culture supernatants on thrombin activity (chromozyme TH); format: biochemical; conditions: yeast culture supernatants after 48 h, compared with native HV2 (FIG. 2)
Protocol: 20 ml of culture (YNBG+0.5% casamino acids) at OD660 0.02 were seeded with each strain. After 48 h of agitation at 30° C. the cultures were centrifuged (5000 rpm, 5 min) and the supernatants assayed. A culture of TGY1sp4 pTG881 (plasmid not carrying the coding sequence for HV2) was used as a control.
The activity of the crude supernatants is measured in terms of their inhibitory effect with respect to thrombin activity (proteolytic activity on a synthetic substrate, chromozyme TH--Boehringer Mannheim).

[2] = biological target: T2, bovine thrombin (Bos taurus, UniProt P00735); test: Specific antithrombin activity, inhibition of proteolytic activity of thrombin on chromozyme; format: biochemical; conditions: stock solution 1 mg/ml in physiological saline
T2 construct: The specific antithrombin activity (human and bovine thrombin) of the two recombinant hirudins
Protocol: (§1) a) The specific antithrombin activity (human and bovine thrombin) of the two recombinant hirudins in physiological saline is determined on the basis of the inhibition of the proteolytic activity of thrombin on chromozyme.
(§2) a) For a preparation of stock solution at a concentration of 1 mg/ml, the specific antithrombin activity of the two variants of hirudin with respect to human and bovine thrombins is expressed in Table 1 below: […]

[3] = tested on: rat and rabbit plasma; test: Anticoagulant activity in vitro in plasma, prolongation of the thrombin time; conditions: higher concentrations, compared with rHV2
Protocol: (§3) b) The anticoagulant activity of the two hirudins is compared in vitro in rat and rabbit plasma in terms of prolongation of the thrombin time, and the anti-IIa effect is measured chromogenically.

[4] = tested on: residual thrombin in the rat and rabbit plasma; test: Anti-IIa effect in plasma, residual thrombin by chromogenic substrate; format: biochemical; conditions: above 60 ATU/ml, compared with rHV2
Protocol: as §3

[5] = tested on: venous thrombosis in rabbits; test: Wessler's model in rabbits (thromboplastin as thrombogenic agent); format: in vivo, rabbit
Protocol: (§4) e) The antithrombotic activity of the two variants of hirudin and of standard heparin is studied in Wessler's rabbit and rat model, with thromboplastin as thrombogenic agent, and in the model of stasis in rabbits (Fareed). The compounds are administered by continuous perfusion in rabbits and by i.v. bolus in rats.
Male New Zealand rabbits weighing 2.5 to 3 kg were used in this study. After anesthesia by intravenous injection of pentobarbital sodium (30 mg/kg), the left carotid was cannulated and the two jugular veins were isolated; two slack ligatures were placed on each of them at a distance of 2.5 cm from one another. The rabbits then received either physiological saline or solutions of hirudin or heparin in continuous perfusion for 30 minutes at a flow rate of 2.5 ml/hour. Two minutes before the end of the perfusion, arterial blood samples were drawn in order to determine the plasma levels of the anti-coagulants. One minute before the end of the perfusion, human thromboplastin (Manchester Comparative Reagents Ltd), standardized according to M. Buchanan's procedure, was injected at a dose of 600 ug/kg during exactly 30 seconds into the aorta via the carotid. Thirty seconds later the perfusion was stopped and blood stasis was produced by tightening the ligatures on the two venous segments for 15 minutes. […]

[6] = tested on: thrombosis by blood stasis in rabbits; test: Model of thrombosis by blood stasis in rabbits; format: in vivo; conditions: RABBIT i.v. perfusion
Protocol: as §4
Male New Zealand rabbits weighing 2.5 to 3 kg were used in this study. After intravenous anesthesia with pentobarbital sodium (30 mg/kg), the left carotid was cannulated and the two jugular veins were isolated; two slack ligatures were placed on each of them, at a distance of 2.5 cm from one another. The rabbits then received either physiological saline or solutions of hirudin or heparin in continuous perfusion for 30 minutes, at a flow rate of 2.5 ml/hour. Two minutes before the end of perfusion, arterial blood samples were drawn in order to determine the plasma levels of the anticoagulants. At the same time as the perfusion was stopped, stasis was established by tightening the four ligatures (first the proximal and then the distal). The stasis was maintained for 2 hours, the jugulars were then opened and the thrombi extracted, rinsed in physiological saline and weighed after blotting with filter paper.

[7] = tested on: venous thrombosis in rats; test: Wessler's model in rats; format: in vivo; conditions: RAT i.v. bolus, -5 min 40 s before stasis
Protocol: as §4
Male (CD-COBS) Sprague-Dawley rats weighing approximately 300 g were used. […] Two flexible ligatures were positioned 0.7 cm apart.
The test products, diluted in physiological saline, were injected in an i.v. bolus at 1 ml/kg, 5 min 40 s or 1 min (heparin) before the production of venous stasis. Forty seconds before this stasis, a thrombogenic agent (rabbit thromboplastin, E. Dade) was injected at a dose of 25 mg/ml/kg into the vein of the penis in the space of 30 seconds, measured very exactly. Ten seconds after the end of the injection, stasis was established by tightening the two ligatures, first the proximal and then the distal. The stasis was maintained for 10 minutes, and the thrombus was then removed, immersed in a 0.38% strength citrate solution, dried with general-purpose absorbent paper and weighed on the following day after drying for one hour at […].

[8] = tested on: hemorrhage in rabbits; conditions: rabbit, in vivo
[9] = tested on: bleeding time in rats; conditions: rat, in vivo
[10] = biological target: T1, thrombin; test: Kinetics of inhibition of human thrombin by purified hirudin variants (chromozyme PL); format: biochemical; parameters: The specific antithrombin activity (human and bovine thrombin) of the two recombinant hirudins
Excerpt: To study the kinetics of inhibition of thrombin by these variants, the theory of high affinity inhibitors, as described in J. W. WILLIAMS and J. F. MORRISON Methods in Enzymology 63 pp. 437-467, 1979, is used, since hirudin is a reversible inhibitor of thrombin.
The variants of hirudin used are purified to 95% and the Sigma pure human thrombin has a percentage activity, measured by titration of the active site, which is above 92%. The concentration of human thrombin is the same for all the measurements, namely 5.5×10^-9 M. The medium is an 0.05M sodium PIPES buffer, pH 7.9, 0.18M KCl and 0.1% PEG at 37° C. The thrombin substrate is Boehringer chromozyme PL. A preincubation time of 2 minutes is observed for the thrombin and hirudin, and the reaction is then initiated with the substrate.
The following table summarizes the values determined experimentally for the quantity of hirudin required for a 95% inhibition of the same quantity of human thrombin (5.5×10^-9 M).

[11] = biological target: T1, thrombin; test: Specific antithrombin activity, inhibition of proteolytic activity of thrombin on chromozyme; format: biochemical; parameters: The specific antithrombin activity (human and bovine thrombin) of the two recombinant hirudins
Protocol: as §1, §2

B1: ILE THR TYR THRASP CYS THR GLU SER GLY GLN ASN LEU CYS LEU CYS GLU GLY SER ASN VAL CYS GLY LYS GLY ASN LYS CYS ILE LEU GLY SER ASN GLY LYS GLY ASN GLN CYS VAL THR GLY GLU GLY THR PRO LYS PRO GLU SER … (protein)
chain: ITYTDCTESGQNLCLCEGSNVCGKGNKCILGSNGKGNQCVTGEGTPKPESHNNGDFEEIPEEYLQ
modifications: printed: ILE THR TYR THRASP CYS THR GLU SER GLY GLN ASN LEU CYS LEU CYS GLU GLY SER ASN VAL CYS GLY LYS GLY ASN LYS CYS ILE LEU GLY SER ASN GLY LYS GLY ASN GLN CYS VAL THR GLY GLU GLY THR PRO LYS PRO GLU SER HIS ASN ASN GLY ASP PHE GLU GLU ILE PRO GLU GLU TYR LEU GLN
notes: recombinant hirudin HV2 variant in which the Asn^47 is replaced by a Lys, produced in yeast
- inhibitory effect of crude supernatants with respect to thrombin activity [1]: at least equal to that of native HV2
- specific antithrombin activity for bovine thrombin [2]: 19,200 ATU/mg
- anticoagulant activity determined in terms of the thrombin time [3]: markedly superior
- further neutralizing the traces of residual thrombin [4]: more effective
- Antithrombotic effects, WESSLER ([5]; RABBIT i.v. perfusion): 20 µg/kg/h
- antithrombotic activity ([5]; continuous perfusion in rabbits, compared with rHV2 and heparin): superior to those of rHV2 and heparin
- Antithrombotic effects, STASIS [6]: 47 µg/kg/h
- Antithrombotic effects, WESSLER [7]: 160 µg/kg
- risk of hemorrhage [8]: less than those in animals treated with standard heparin
- prolongation of the bleeding time [9]: less than those in animals treated with standard heparin
- Quantity for attaining 95% inhibition of thrombin ([10]; human thrombin 5.5×10^-9 M, PIPES pH 7.9, 37° C., chromozyme PL, 2 min preincubation): 7.6 10^-9 M
- fold less hirudin than HV2 required for inhibiting the same quantity of human thrombin ([10]; relative to hirudin HV2): approximately 4 fold
- specific antithrombin activity, results expected for human thrombin ([11]; expected values): 16,000 ATU/mg
- specific antithrombin activity for human thrombin ([11]; stock solution 1 mg/ml in physiological saline): 19,000 ATU/mg
- specific antithrombin activity ([11]; summary value of the text, identical for the human and bovine thrombins): ~19,000 ATU/mg
